{"source": "paper PMC10858965", "assay_in_all_cases": "filter binding", "details_in_all_cases": "1 mM MgCl2 in FB buffer; Filter binding: 3 parts FB buffer (50 mM Tris pH 8.0, 1 mM MgCl2) + 1 part SEC buffer (20 mM HEPES pH 7.5, 150 mM NaCl, 1 mM DTT, 10% glycerol), 5 min, room …", "key": {"[1]": {"test_system": "Lig4 mDBD1;XRCC4 (Xenopus laevis;Xenopus laevis?)"}, "[2]": {"test_system": "Lig4 mDBD2;XRCC4 (Xenopus laevis;Xenopus laevis?)"}, "[3]": {"test_system": "Lig4 delta-DBD;XRCC4 (Xenopus laevis;Xenopus laevis?)"}, "[4]": {"test_system": "Lig4 mDBD1+2;XRCC4 (Xenopus laevis;Xenopus laevis?)"}}, "data": [{"substance": "~1 kb circular DNA", "values": [{"measurement": "binding signal (fold weaker than WT)", "setting": "[1]", "value": 10}, {"measurement": "binding signal (fold weaker than WT)", "setting": "[2]", "value": 10}, {"measurement": "binding signal (fold weaker than WT)", "setting": "[3]", "value": 30}, {"measurement": "binding signal (fold weaker than WT)", "setting": "[4]", "value": 30}]}]}
